According to patent publication US20170275666A1, “Methods for Preparing Rebaudioside I and Uses” (The Coca-Cola Company, priority 2014, published 2017):

Experiment: Directed evolution of UGT76G1, conversion of Rebaudioside D to Rebaudioside M (round 1)
Type: biochemical
Details: 0.5 mM Rebaudioside D, 2.5 mM UDP-Glucose, 100 μL fresh lysate, 30° C., pH 7.2
Outline: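 Conversion to Reb M and initial rate were measured by HPLC with CAD at 2, 4, 7 and 24 h, with reactions run at 30° C in 50 mM phosphate pH 7.2 containing 0.5 mM Reb D, 2.5 mM UDP-glucose and 3 mM MgCl2. Enzyme source: fresh lysates of E. coli BL21(DE3) expressing 3-5-mutation UGT76G1 variants.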

Molecule	Conversion Reb D to Reb M after 24 h (%)	initial rate (Reb M area/min)
UGT76G1var42: UGT76G1 variant, mutations T263S_Q266S_R334H (protein, UniProt Q6VAB4 1-458, looked up, variant T263S Q266S R334H) UDP-glycosyltransferase 76G1: MENKTETTVRRRRRIILFPVPFQGHINPILQLANVLYSKGFSITIFHTNFNKPKTSNYPHFTFRFILDNDPQDERISNLPTHGPLAGMRIPIINEHGADELRRELELLMLASEEDEEVSCLITDALWYFAQSVADSLNLRRLVLMTSSLFNFHAHVSLPQFDELGYLDPDDKTRLEEQASGFPMLKVKDIKSAYSNWQILKEILGKMIKQTKASSGVIWNSFKELEESELETVIREIPAPSFLIPLPKHLTASSSSLLDHDRSVFSWLDQQPPSSVLYVSFGSTSEVDEKDFLEIARGLVDSKQSFLWVVRPGFVKGSTWVEPLPDGFLGERGHIVKWVPQQEVLAHGAIGAFWTHSGWNSTLESVCEGVPMIFSDFGLDQPLNARYMSDVLKVGVYLENGWERGEIANAIRRVMVDEEGEYIRQNARVLKQKADVSLMKGGSSYESLESLVSYISSL	34.6%	2.2E+07 Reb M area/min
UGT76G1var44: UGT76G1 variant, mutations I335V_S375R_I407V (protein, UniProt Q6VAB4 1-458, looked up, variant I335V S375R I407V) UDP-glycosyltransferase 76G1: MENKTETTVRRRRRIILFPVPFQGHINPILQLANVLYSKGFSITIFHTNFNKPKTSNYPHFTFRFILDNDPQDERISNLPTHGPLAGMRIPIINEHGADELRRELELLMLASEEDEEVSCLITDALWYFAQSVADSLNLRRLVLMTSSLFNFHAHVSLPQFDELGYLDPDDKTRLEEQASGFPMLKVKDIKSAYSNWQILKEILGKMIKQTKASSGVIWNSFKELEESELETVIREIPAPSFLIPLPKHLTASSSSLLDHDRTVFQWLDQQPPSSVLYVSFGSTSEVDEKDFLEIARGLVDSKQSFLWVVRPGFVKGSTWVEPLPDGFLGERGRVVKWVPQQEVLAHGAIGAFWTHSGWNSTLESVCEGVPMIFRDFGLDQPLNARYMSDVLKVGVYLENGWERGEVANAIRRVMVDEEGEYIRQNARVLKQKADVSLMKGGSSYESLESLVSYISSL	35.3%	2.3E+07 Reb M area/min
UGT76G1var43: UGT76G1 variant, mutations S241I_P272A_V279I (protein, UniProt Q6VAB4 1-458, looked up, variant S241I P272A V279I) UDP-glycosyltransferase 76G1: MENKTETTVRRRRRIILFPVPFQGHINPILQLANVLYSKGFSITIFHTNFNKPKTSNYPHFTFRFILDNDPQDERISNLPTHGPLAGMRIPIINEHGADELRRELELLMLASEEDEEVSCLITDALWYFAQSVADSLNLRRLVLMTSSLFNFHAHVSLPQFDELGYLDPDDKTRLEEQASGFPMLKVKDIKSAYSNWQILKEILGKMIKQTKASSGVIWNSFKELEESELETVIREIPAPIFLIPLPKHLTASSSSLLDHDRTVFQWLDQQAPSSVLYISFGSTSEVDEKDFLEIARGLVDSKQSFLWVVRPGFVKGSTWVEPLPDGFLGERGRIVKWVPQQEVLAHGAIGAFWTHSGWNSTLESVCEGVPMIFSDFGLDQPLNARYMSDVLKVGVYLENGWERGEIANAIRRVMVDEEGEYIRQNARVLKQKADVSLMKGGSSYESLESLVSYISSL	19.9%	9.4E+06 Reb M area/min
UGT76G1var45: UGT76G1 variant, mutations V279I_D301N_S389E (protein, UniProt Q6VAB4 1-458, looked up, variant V279I D301N S389E) UDP-glycosyltransferase 76G1: MENKTETTVRRRRRIILFPVPFQGHINPILQLANVLYSKGFSITIFHTNFNKPKTSNYPHFTFRFILDNDPQDERISNLPTHGPLAGMRIPIINEHGADELRRELELLMLASEEDEEVSCLITDALWYFAQSVADSLNLRRLVLMTSSLFNFHAHVSLPQFDELGYLDPDDKTRLEEQASGFPMLKVKDIKSAYSNWQILKEILGKMIKQTKASSGVIWNSFKELEESELETVIREIPAPSFLIPLPKHLTASSSSLLDHDRTVFQWLDQQPPSSVLYISFGSTSEVDEKDFLEIARGLVNSKQSFLWVVRPGFVKGSTWVEPLPDGFLGERGRIVKWVPQQEVLAHGAIGAFWTHSGWNSTLESVCEGVPMIFSDFGLDQPLNARYMEDVLKVGVYLENGWERGEIANAIRRVMVDEEGEYIRQNARVLKQKADVSLMKGGSSYESLESLVSYISSL	38.6%	2.3E+07 Reb M area/min
UGT76G1var49: UGT76G1 variant, mutations F41L_Q266E_T284I_Y397Q (protein, UniProt Q6VAB4 1-458, looked up, variant F41L Q266E T284I Y397Q) UDP-glycosyltransferase 76G1: MENKTETTVRRRRRIILFPVPFQGHINPILQLANVLYSKGLSITIFHTNFNKPKTSNYPHFTFRFILDNDPQDERISNLPTHGPLAGMRIPIINEHGADELRRELELLMLASEEDEEVSCLITDALWYFAQSVADSLNLRRLVLMTSSLFNFHAHVSLPQFDELGYLDPDDKTRLEEQASGFPMLKVKDIKSAYSNWQILKEILGKMIKQTKASSGVIWNSFKELEESELETVIREIPAPSFLIPLPKHLTASSSSLLDHDRTVFEWLDQQPPSSVLYVSFGSISEVDEKDFLEIARGLVDSKQSFLWVVRPGFVKGSTWVEPLPDGFLGERGRIVKWVPQQEVLAHGAIGAFWTHSGWNSTLESVCEGVPMIFSDFGLDQPLNARYMSDVLKVGVQLENGWERGEIANAIRRVMVDEEGEYIRQNARVLKQKADVSLMKGGSSYESLESLVSYISSL	2.6%	1.1E+06 Reb M area/min
UGT76G1var47: UGT76G1 variant, mutations E229A_T284I_S389E (protein, UniProt Q6VAB4 1-458, looked up, variant E229A T284I S389E) UDP-glycosyltransferase 76G1: MENKTETTVRRRRRIILFPVPFQGHINPILQLANVLYSKGFSITIFHTNFNKPKTSNYPHFTFRFILDNDPQDERISNLPTHGPLAGMRIPIINEHGADELRRELELLMLASEEDEEVSCLITDALWYFAQSVADSLNLRRLVLMTSSLFNFHAHVSLPQFDELGYLDPDDKTRLEEQASGFPMLKVKDIKSAYSNWQILKEILGKMIKQTKASSGVIWNSFKELEESALETVIREIPAPSFLIPLPKHLTASSSSLLDHDRTVFQWLDQQPPSSVLYVSFGSISEVDEKDFLEIARGLVDSKQSFLWVVRPGFVKGSTWVEPLPDGFLGERGRIVKWVPQQEVLAHGAIGAFWTHSGWNSTLESVCEGVPMIFSDFGLDQPLNARYMEDVLKVGVYLENGWERGEIANAIRRVMVDEEGEYIRQNARVLKQKADVSLMKGGSSYESLESLVSYISSL	4.8%	2.7E+06 Reb M area/min
UGT76G1var46: UGT76G1 variant, mutations F22L_Q266E_I295M (protein, UniProt Q6VAB4 1-458, looked up, variant F22L Q266E I295M) UDP-glycosyltransferase 76G1: MENKTETTVRRRRRIILFPVPLQGHINPILQLANVLYSKGFSITIFHTNFNKPKTSNYPHFTFRFILDNDPQDERISNLPTHGPLAGMRIPIINEHGADELRRELELLMLASEEDEEVSCLITDALWYFAQSVADSLNLRRLVLMTSSLFNFHAHVSLPQFDELGYLDPDDKTRLEEQASGFPMLKVKDIKSAYSNWQILKEILGKMIKQTKASSGVIWNSFKELEESELETVIREIPAPSFLIPLPKHLTASSSSLLDHDRTVFEWLDQQPPSSVLYVSFGSTSEVDEKDFLEMARGLVDSKQSFLWVVRPGFVKGSTWVEPLPDGFLGERGRIVKWVPQQEVLAHGAIGAFWTHSGWNSTLESVCEGVPMIFSDFGLDQPLNARYMSDVLKVGVYLENGWERGEIANAIRRVMVDEEGEYIRQNARVLKQKADVSLMKGGSSYESLESLVSYISSL	0.6%	9.8E+05 Reb M area/min
UGT76G1var50: UGT76G1 variant, mutations F22Y_V310I_S375M_F377C (protein, UniProt Q6VAB4 1-458, looked up, variant F22Y V310I S375M F377C) UDP-glycosyltransferase 76G1: MENKTETTVRRRRRIILFPVPYQGHINPILQLANVLYSKGFSITIFHTNFNKPKTSNYPHFTFRFILDNDPQDERISNLPTHGPLAGMRIPIINEHGADELRRELELLMLASEEDEEVSCLITDALWYFAQSVADSLNLRRLVLMTSSLFNFHAHVSLPQFDELGYLDPDDKTRLEEQASGFPMLKVKDIKSAYSNWQILKEILGKMIKQTKASSGVIWNSFKELEESELETVIREIPAPSFLIPLPKHLTASSSSLLDHDRTVFQWLDQQPPSSVLYVSFGSTSEVDEKDFLEIARGLVDSKQSFLWVIRPGFVKGSTWVEPLPDGFLGERGRIVKWVPQQEVLAHGAIGAFWTHSGWNSTLESVCEGVPMIFMDCGLDQPLNARYMSDVLKVGVYLENGWERGEIANAIRRVMVDEEGEYIRQNARVLKQKADVSLMKGGSSYESLESLVSYISSL	1.9%	7.9E+05 Reb M area/min
UGT76G1var2: UGT76G1 variant, mutations S274G_T284I_L379G (protein, UniProt Q6VAB4 1-458, looked up, variant S274G T284I L379G) UDP-glycosyltransferase 76G1: MENKTETTVRRRRRIILFPVPFQGHINPILQLANVLYSKGFSITIFHTNFNKPKTSNYPHFTFRFILDNDPQDERISNLPTHGPLAGMRIPIINEHGADELRRELELLMLASEEDEEVSCLITDALWYFAQSVADSLNLRRLVLMTSSLFNFHAHVSLPQFDELGYLDPDDKTRLEEQASGFPMLKVKDIKSAYSNWQILKEILGKMIKQTKASSGVIWNSFKELEESELETVIREIPAPSFLIPLPKHLTASSSSLLDHDRTVFQWLDQQPPGSVLYVSFGSISEVDEKDFLEIARGLVDSKQSFLWVVRPGFVKGSTWVEPLPDGFLGERGRIVKWVPQQEVLAHGAIGAFWTHSGWNSTLESVCEGVPMIFSDFGGDQPLNARYMSDVLKVGVYLENGWERGEIANAIRRVMVDEEGEYIRQNARVLKQKADVSLMKGGSSYESLESLVSYISSL	49.3%	4.7E+07 Reb M area/min
UGT76G1var48: UGT76G1 variant, mutations V394I_Y397E_Q432E (protein, UniProt Q6VAB4 1-458, looked up, variant V394I Y397E Q432E) UDP-glycosyltransferase 76G1: MENKTETTVRRRRRIILFPVPFQGHINPILQLANVLYSKGFSITIFHTNFNKPKTSNYPHFTFRFILDNDPQDERISNLPTHGPLAGMRIPIINEHGADELRRELELLMLASEEDEEVSCLITDALWYFAQSVADSLNLRRLVLMTSSLFNFHAHVSLPQFDELGYLDPDDKTRLEEQASGFPMLKVKDIKSAYSNWQILKEILGKMIKQTKASSGVIWNSFKELEESELETVIREIPAPSFLIPLPKHLTASSSSLLDHDRTVFQWLDQQPPSSVLYVSFGSTSEVDEKDFLEIARGLVDSKQSFLWVVRPGFVKGSTWVEPLPDGFLGERGRIVKWVPQQEVLAHGAIGAFWTHSGWNSTLESVCEGVPMIFSDFGLDQPLNARYMSDVLKIGVELENGWERGEIANAIRRVMVDEEGEYIRQNARVLKEKADVSLMKGGSSYESLESLVSYISSL	47.6%	3.8E+07 Reb M area/min
